In patent US20210070843A1:

How the values were obtained:
[1] = target: recombinant H3N2 WN/05 HA trimer (hemagglutinin ectodomain of A/Wisconsin/67/2005) (influenza A virus A/Wisconsin/67/2005 (H3N2)); assay: ELISA, coated HA
[2] = target: recombinant H1N1 CA/09 HA trimer (hemagglutinin ectodomain of A/California/07/2009) (influenza A virus A/California/07/2009 (H1N1)); assay: ELISA, coated HA
[3] = target: recombinant H7N9 AH/13 HA trimer (hemagglutinin ectodomain of A/Anhui/1-BALF_RG17/2013) (influenza A virus A/Anhui/1-BALF_RG17/2013 (H7N9)); assay: ELISA, coated HA
[4] = target: recombinant H5N1 VN/04 HA trimer (hemagglutinin ectodomain of A/Vietnam/1203/2004) (influenza A virus A/Vietnam/1203/2004 (H5N1)); assay: ELISA, coated HA
[5] = target: full-length H5 A/Vietnam/1203/2004 HA expressed on 293T cells (influenza A virus A/Vietnam/1203/2004 (H5N1)); assay: cell-based or functional assay
[6] = target: full-length H1 A/California/07/2009 HA expressed on 293T cells (influenza A virus A/California/07/2009 (H1N1)); assay: cell-based or functional assay
[7] = target: H7 A/Anhui/1-BALF_RG17/2013 HA on H7N9 AH/13 pseudo virus (influenza A virus A/Anhui/1-BALF_RG17/2013 (H7N9)); assay: cell-based or functional assay
[8] = target: full-length H5 A/Vietnam/1203/2004 HA expressed on 293T cells (influenza A virus A/Vietnam/1203/2004 (H5N1)); assay: flow cytometry, HA-expressing 293T
[9] = target: cell surface-expressed H3N2 WN/05 HA trimer (influenza A virus A/Wisconsin/67/2005 (H3N2)); assay: flow cytometry, HA-expressing 293T
[10] = target: full-length H1 A/California/07/2009 HA expressed on 293T cells (influenza A virus A/California/07/2009 (H1N1)); assay: flow cytometry, HA-expressing 293T
[11] = target: cell surface-expressed H3N2 WN/05 HA trimer (influenza A virus A/Wisconsin/67/2005 (H3N2)); assay: cell-based or functional assay

Molecule	EC50 [1]	EC50 [2]	EC50 [3]	EC50 [4]	IC50 of pseudo virus neutralization H5N1 VN/04 [5]	IC50 of pseudo virus neutralization H1N1 CA/09 [6]	IC50 of true virus neutralization H1N1 CA/09 [6]	IC50 of pseudo virus neutralization H7N9 AH/13 [7]	max. MFI [8]	EC50 [9]	max. MFI [9]	EC50 [10]	max. MFI [10]	IC50 of pseudo virus neutralization H3N2 WN/05 [11]
FI6V3 (antibody)	0.0789 µg/mL	0.0107 µg/mL	0.314 µg/mL	0.00648 µg/mL	0.013 µg/mL	0.0213 µg/mL	9.21 µg/mL	0.051 µg/mL	13700 MFI	0.065 µg/mL	16600 MFI	0.067 µg/mL	10100 MFI	–
CR8020 (antibody)	0.0194 µg/mL	–	–	–	> 200 µg/mL	> 100 µg/mL	> 500 µg/mL	0.052 µg/mL	639 MFI	0.569 µg/mL	18000 MFI	–	91 MFI	0.0477 µg/mL
F10 (antibody)	–	0.0121 µg/mL	–	0.021 µg/mL	0.012 µg/mL	0.0119 µg/mL	1.26 µg/mL	> 200 µg/mL	10500 MFI	–	220 MFI	1.05 µg/mL	9530 MFI	–
C05 (antibody)	0.00844 µg/mL	–	–	–	–	–	–	–	–	–	–	–	–	–
P44 (antibody, V domains shown) VH: EVQLVESGGGLVQPGGSLRLSCAASGFTIDGWWIHWVRQAPGKGLEWVAGIWPFGGFTSYADSVKGRFTISADTSKNTAYLQMNSLRAEDTAVYYCARSYSGYSGDYWGQGTLVTVSS VL: DIQMTQSPSSLSASVGDRVTITCRASQDVNNNVAWYQQKPGKAPKLLIYWSSSLYSGVPSRFSGSGSGTDFTLTISSLQPEDFATYYCQQYYNFPVTFGQGTKVEIKR	–	–	0.163 µg/mL	0.1 µg/mL	> 200 µg/mL	> 100 µg/mL	> 500 µg/mL	> 200 µg/mL	188 MFI	–	127 MFI	0.466 µg/mL	8480 MFI	> 20 µg/mL
